In patent US20200024354A1 (OSSIANIX, published 2020):
Where two headings read alike, the source gives them in different places. One block for each binder: values may come before it.

How the values were obtained:
[1] = biological target: T1, recombinant human BAFF-Fc (Sino Biological) (human, UniProt Q9Y275 134-285); test: ELISA, purified monomeric VNAR on coated BAFF-Fc, anti-FLAG detection
T1 construct: Bought reagent; also called hBAFF; not shown: Fc moiety detected by anti-human Fc

[2] = biological target: T2, human serum albumin (Sigma) (human, UniProt P02768 25-609); test: ELISA, periplasmic extract on coated HSA (1 µg/mL), anti-FLAG-HRP
T2 construct: Negative control coat; also called HSA
Experimental: (§1) After selection rounds three and four, 93 individual clones were picked and grown in 96 deep-well plates in auto-induction medium (Novagen). Periplasmic protein was extracted by osmotic shock as described in Müller M R et al. (Generation and isolation of target-specific single-domain antibodies from shark immune repertoires. Methods Mol Biol. 2012; 907:177-94) and directly used in a binding ELISA. Briefly, Nunc Maxisorp 96-well plates were coated at 1 μg/mL with either BAFF-Fc or HSA and periplasmic fraction, pre-blocked in PBS-0.1% Tween+2.5% milk, was exposed to the coated surface. After washing in PBS-0.1% Tween, bound VNARs were detected using a peroxidase-conjugated anti-FLAG antibody (Sigma). Absorbance at 450 nm was recorded using an Envision multiwell reader (Perkin Elmer) and BAFF-specific clones were selected using the criteria: BAFF signal/HSA signal ≥4. The DNA sequence of positive clones was determined by the Sanger chain termination method (GATC biotech), using the specific oligonucleotide 5′-[…]-3′. Protein alignments were performed using the BioEdit software.

[3] = biological target: T1, recombinant human BAFF-Fc (Sino …); test: blocking ELISA, VNAR diluted with 1.14 nM BAFF-Fc; binding of BAFF-Fc to coated BAFF-R extracellular domain
[4] = biological target: T2, human serum albumin (Sigma); test: ELISA, periplasmic extract on coated HSA (1 µg/mL), anti-FLAG-HRP; remark: listed apart in the source
APRIL (Sigma) = biological target: T3, APRIL (Sigma) (UniProt O75888 105-250, limits assumed); test: ELISA, periplasmic extract on coated APRIL (1 µg/mL), anti-FLAG-HRP
T3 sequence (looked up): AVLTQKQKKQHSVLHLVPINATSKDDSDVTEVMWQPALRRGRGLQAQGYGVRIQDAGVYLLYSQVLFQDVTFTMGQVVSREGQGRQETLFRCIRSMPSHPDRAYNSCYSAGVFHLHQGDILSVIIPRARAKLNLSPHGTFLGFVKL
Experimental: Clones blocking the interaction between BAFF and its three receptors were tested for their ability to cross-react with BAFF's closest related protein, APRIL. Clones were grown in a 96 well format, periplasmic fraction was extracted by osmotic shock as previously described and directly used in a binding ELISA. Nunc Maxisorp 96 well plates were coated at 1 μg/mL with either BAFF-Fc (Sino Biological), HSA (Sigma), or APRIL (Sigma) and periplasmic fraction, pre-blocked in PBS-0.1% Tween+2.5% Milk, was exposed to the coated surface. After washing in PBS-0.1% Tween, bound VNARs were detected using a peroxidase-conjugated anti-FLAG antibody (Sigma). Absorbance at 450 nm was recorded using an Envision multiwell reader (Perkin Elmer).

[5] = biological target: T1, recombinant human BAFF-Fc (Sino …); test: ELISA, periplasmic extract on coated BAFF-Fc (1 µg/mL), anti-FLAG-HRP
Experimental: as §1

[6] = biological target: T1, recombinant human BAFF-Fc (Sino …); test: cell-based or functional assay
[7] = biological target: T1, recombinant human BAFF-Fc (Sino …); test: blocking ELISA, binding of BAFF-Fc to coated BR3 (BAFF-R); repeats Table 2
[8] = biological target: T1, recombinant human BAFF-Fc (Sino …); test: blocking ELISA, VNAR diluted with 0.5 nM BAFF-Fc; binding of BAFF-Fc to coated BCMA
Experimental: (§2) The pre-blocked proteins were then exposed to Nunc Maxisorp 96 well plates which were coated at 1 μg/mL with the recombinant human TACI or BCMA (Peprotech), preblocked in (PBS-0.1% Tween+2.5% Milk). After washing in PBS-0.1% Tween, BAFF bound to its receptor was detected via its Fc moiety using a peroxidase-conjugated anti-human Fc (Sigma). Absorbance at 450 nm was recorded using an Envision multiwell reader (Perkin Elmer) and IC50 values were calculated by fitting the curves (non-linear regression) using GraphPad Prism®. The results are shown in FIG. 15 and the fitted IC50 values are tabulated below.

[9] = biological target: T1, recombinant human BAFF-Fc (Sino …); test: blocking ELISA, VNAR diluted with 0.5 nM BAFF-Fc; binding of BAFF-Fc to coated TACI
Experimental: as §2

[10] = biological target: recombinant mouse BAFF (R&D Systems) (mouse, UniProt Q9WU72 127-309); test: Mouse cross-reactivity grade (binds to both human and mouse BAFF); assay not described
recombinant mouse BAFF (R&D Systems), sequence (Q9WU72 127-309 limits assumed): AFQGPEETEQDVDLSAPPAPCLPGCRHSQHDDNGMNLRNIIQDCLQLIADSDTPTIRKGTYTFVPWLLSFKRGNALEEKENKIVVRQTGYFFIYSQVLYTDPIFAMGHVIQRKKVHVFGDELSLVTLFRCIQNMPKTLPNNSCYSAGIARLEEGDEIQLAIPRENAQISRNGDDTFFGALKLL

T2 sequence (P02768 25-609 limits assumed): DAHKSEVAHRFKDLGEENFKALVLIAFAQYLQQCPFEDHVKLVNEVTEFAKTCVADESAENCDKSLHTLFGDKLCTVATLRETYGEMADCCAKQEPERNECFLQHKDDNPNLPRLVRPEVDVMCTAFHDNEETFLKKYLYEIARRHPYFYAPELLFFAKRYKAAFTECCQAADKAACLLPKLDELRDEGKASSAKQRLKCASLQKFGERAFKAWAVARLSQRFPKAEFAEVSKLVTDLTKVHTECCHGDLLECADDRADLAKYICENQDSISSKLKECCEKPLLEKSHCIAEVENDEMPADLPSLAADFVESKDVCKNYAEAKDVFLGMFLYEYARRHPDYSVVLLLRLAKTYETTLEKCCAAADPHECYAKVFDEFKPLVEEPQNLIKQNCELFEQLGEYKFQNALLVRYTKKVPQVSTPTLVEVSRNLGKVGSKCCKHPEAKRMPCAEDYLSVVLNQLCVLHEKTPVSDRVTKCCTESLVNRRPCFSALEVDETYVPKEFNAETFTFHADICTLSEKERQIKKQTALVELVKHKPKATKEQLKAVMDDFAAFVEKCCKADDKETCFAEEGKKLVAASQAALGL

B1: ID2-101B01 (VNAR)
VNAR: AARVDQTPQTITKETGESLTINCVLRDSNCALSSTYWYRKKSGSTNEESISKGGRYVETVNSGSKSFSLRINDLTVEDSGTYRCNVAPTIISGCSIKRRDVYGGGTAVTVNA
notes: Nurse shark VNAR single domain, monomer
EC50 [1]: 0.0074 µM
binding result [2]: no binding
IC50 [3]: 0.0912 µM

B2: ID2-101A12 (VNAR)
VNAR: AARVDQTPQTVTKETGESLTINCVLRDASYALGSTCWYRKKSGSRNEESISKGGRYVETVNSGSKSFSLRINDLTVEDSGTYRCKVRDPLLFPRDRCDGESKDVYGGGTVVTVNA
notes: as for B1
EC50 [1]: 0.00457 µM
binding result [4]: no binding
IC50 [3]: 0.0492 µM

B4: ID2-101B11 (VNAR)
VNAR: AARVDQTPRSVTKETGESLTINCVLRDSNCALSSTYWYRKKSGSTNEENISKGGRYVETVNSGSKSFSLRINDLTVEDSGTYRCKVMLDPLLCPALLESMTDVYGGGTAVTVNA
notes: as for B1
EC50 [1]: 0.00249 µM
binding result [2]: no binding
binding result (APRIL (Sigma)): no binding
IC50 [3]: 0.00685 µM

B5: ID2-101A03 (VNAR)
VNAR: AARVDQTPQTITKETGESLTINCVLRDNNCALSTTYWYRKKSGSTNEENISKGGRYVETVNSGSKSFSLKINDLTVEDSGTYRCKVRVDRLLCGWRVGRRQLGDVYGGGTVVTVNA
notes: as for B1
EC50 [1]: 0.0172 µM
binding result [2]: no binding
binding result (APRIL (Sigma)): no binding
IC50 [3]: 0.0123 µM

B6: ID2-101A01 (VNAR)
VNAR: AARVDQTPQTITKETGESLTINCVLRDSNCALSNLYWYRKKSGSTNEESISLGGRYVETVNSGSKSFSLRINDLTVEDSGTYRCKVRRARVIGGEYCRVQWQDVYGGGTAVTVNA
notes: Nurse shark VNAR single domain, monomer in periplasmic extract
binding result [5]: binds

B8: ID2-101A09 (VNAR)
VNAR: AARVDQTPQTITKETGESLTINCVLRDNNCALSTTYWYRKKSGSTNEESISKGGRYVETVNSGSKSFSLRINDLTVEDSGTYRCKVREDPLMCRYYLDRYRDVYGGGTVVTVNA
notes: as for B1
CELLULAR IC50 [6]: 0.215 µM
EC50 [1]: 0.0049 µM
IC50 [7]: 0.0097 µM
binding result [4]: no binding
binding result (APRIL (Sigma)): no binding
IC50 [8]: 0.0236 µM
IC50 [9]: 0.0272 µM
binding result [10]: binds
IC50 [3]: 0.0097 µM

B10: ID2-101C01 (VNAR)
VNAR: AARVDQTPQTITKETGESLTINCVLRDNNCALSTTYWYRKKSGSTNEENISKGGRYVETVNSGSKSFSLRINDLTVEDSGTYRCKVRLDLLLCRNGSTNSIDVYGGGTAVTVNA
notes: as for B1
EC50 [1]: 0.00213 µM
binding result [2]: no binding
IC50 [3]: 0.00385 µM

B11: ID2-101A05 (VNAR)
VNAR: AARVDQTPQTITKETGESLTINCVLRDNNCALSTTYWYRKKSGSTNEENISKGGRYVETVNSGSKSFSLRINDLTVEDSGTYRCKVSKDWLLCRDRGRRETDVYGDGTAVTVNA
notes: Nurse shark VNAR single domain, tested as monomer
CELLULAR IC50 [6]: 0.135 µM
EC50 [1]: 0.0015 µM
binding result [2]: no binding
IC50 [7]: 0.0138 µM
binding result (APRIL (Sigma)): no binding
IC50 [8]: 0.0174 µM
IC50 [9]: 0.0578 µM
binding result [10]: binds
IC50 [3]: 0.0138 µM

B13: ID2-101B07 (VNAR)
VNAR: AARVDQTPRSVTKETGESLTINCVLRDSICALSSTHWYRKKSGSTNEESISKGGRYVETVNSGSKSFSLRINDLTVEDSGTYRCKVHGGRSTGLCGDVLLAGDVYGGGTAVTVNA
notes: as for B1
CELLULAR IC50 [6]: 0.06 µM
EC50 [1]: 0.0008 µM
IC50 [7]: 0.0068 µM
binding result [4]: no binding
IC50 [8]: 0.0189 µM
IC50 [9]: 0.024 µM
IC50 [3]: 0.0068 µM

B16: ID2-101B03 (VNAR)
VNAR: AARVDQTPRSVTKETGESLTINCVLRDNNCALSTTYWYRKKSGSTNEENISKGGRYVETVNSGSKSFSLRINDLTVEDSGTYRCKVKPDLLFCSSSGLGLIQDVYGGGTAVTVNA
notes: as for B6
binding result [5]: binds

The next lines start with the values.

EC50 [1]: 0.0118 µM
binding result [2]: no binding
binding result (APRIL (Sigma)): no binding
IC50 [3]: 0.148 µM
B3: ID2-101B05 (VNAR)
VNAR: AARVDQTPRSVTKETGESLTINCVLRDSICALSSTHWYRKKSGSTNEESISKGGRYVETVNSGSKSFSLRINDLTVEDSGTYRCKVNHDLLTSSRRCQSQIKDVYGGGTVVTVNA
notes: as for B1

binding result [5]: binds
B7: ID2-101C02 (VNAR)
VNAR: AARVDQTPQTITKETGESLTINCVLRDNNCALSTTYWYRKKSGSTNEENISKGGRYVETVNSGSKSFSLKINDLTVKDSGTYRCKVTRDPLFCSYRASKRHDVYGGGTVVTVNA
notes: as for B6

CELLULAR IC50 [6]: ~0.1 µM
EC50 [1]: 0.001 µM
binding result [2]: no binding
IC50 [7]: 0.0028 µM
binding result (APRIL (Sigma)): no binding
IC50 [8]: 0.0105 µM
IC50 [9]: 0.0141 µM
binding result [10]: binds
IC50 [3]: 0.0028 µM
B9: ID2-101B10 (VNAR)
VNAR: AARVDQTPQTITKETGESLTINCVLRDSNCALSSTYWYRKKSGSTNEESISKGGRYVETVNSGSKSFSLRINDLTVEDSGTYRCKVRIDPLLCNASYVKWDDVYGGGTVVTVNA
notes: as for B1

EC50 [1]: 0.0027 µM
binding result [2]: no binding
binding result (APRIL (Sigma)): no binding
IC50 [3]: 0.00932 µM
B12: ID2-101B12 (VNAR)
VNAR: AARVDQTPQTITKETGESLTINCVLRDSNCALSSTYWYRKKSGSTNEESISKGGRYVETVNSGSKSFSLRINDLTVEDSGTYRCKVFIDPLLCSRDALGFSDVYGDGTAVTVNA
notes: as for B1

binding result [5]: binds
B14: ID2-101C03 (VNAR)
chain: AQAAARVDQTPRSVTKETGESLTINCVLRDSICALSSTHWYRKKSGSTNEESISLGGRYVETVNSGSKSFSLKINDLTVEDSGTYRCKVTRYVVFSGSTCRMRRADVYGGGTVVTMNAASGAHHHHHHGADYKDDDDK
notes: as for B6

CELLULAR IC50 [6]: 0.058 µM
EC50 [1]: 0.0005 µM
binding result [2]: no binding
IC50 [7]: 0.0068 µM
binding result (APRIL (Sigma)): no binding
IC50 [8]: 0.0245 µM
IC50 [9]: 0.0827 µM
IC50 [3]: 0.0068 µM
B15: ID2-101A07 (VNAR)
VNAR: AARVDQTPQTITKETGESLTINCVLRDSNCALSNLYWYRKKSGSTNEESISLGGRYVETVNSGSKSFSLRINDLTVEDSGTYRCKVQLPYDPLTKECILGRMDVYGDGTAVTVNA
notes: as for B11
